We go through 9 molecules from paper PMC8575264.

Read-outs that look alike come from different tables or passages of the source.

Experiment in all cases: fluorescence anisotropy
Series [1] has as its target T1, holo-CPSF30-5F (UniProt O19137 35-169).
For series [2], the target named is T2, Zn(II)-CPSF30-ZK (UniProt O19137).
T2 chain: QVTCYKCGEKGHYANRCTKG

Series [3] deals with T3, holo-CPSF30-FL (Bos taurus, UniProt O19137 1-243).
Series [4] has as its target Zn(II)-CPSF30-F2F3 (UniProt O19137).
The target in series [5] is T3, holo-CPSF30-FL. The source holds these as a separate data set.
The target in series [6] is T3, holo-CPSF30-FL. This is another data set of the same source.
The target in series [7] is T1, holo-CPSF30-5F. The source holds these as a separate data set.
Series [8] deals with T3, holo-CPSF30-FL. This is another data set of the same source.

Turning to UUUUUUUUUUUUUUUUUUUUUUUU (ssRNA) [PolyU24], the binding result in series [1] and in series [2] was “no binding” throughout.

For the molecule CACUUUAAUCCUCCAAAUCAUGCU (ssRNA) [ΔA1,2,4,5], the binding result in series [1] is “no binding”. Further, the “apparent K (half saturation)” value in series [3] stood at 275 nM.

Turning to UUUAUUUAUUU (ssRNA) [ARE11], the binding result in series [4] and in series [2] was “no binding” each time.

As to AAUAAUAAUAAU (ssRNA) [AAU12], the binding result in series [4] was “no binding”.

With AAUAAUAAUAAUAAUAAUAAUAAU (ssRNA) [AAU24], the binding result in series [4] was “no binding”.

For CACUUUAAUCCCCCCAAUCAUGCU (ssRNA) [PolyC24], the binding result in series [5] is given as “no binding”.

For CACUUUAAUAAUAAAAAUCAUGCU (ssRNA) [α-syn24], in series [6], the “apparent K (half saturation)” value stood at 110 nM. Besides, the binding result in series [4] is “no binding”.

UCUCACUUUAAUAAUAAAAAUCAUGCUUAU (ssRNA) [α-syn30]: the binding result in series [4] is on record as “no binding”. In addition, the results for the “apparent K (half saturation)” value in series [7] and in series [8] were 178 nM and 110 nM, respectively.

As for AAUAAUAAU (ssRNA) [AAU9], the binding result in series [4] is “no binding”.
